Source: patent US20230167179A1 (CENTRE NATIONAL DE LA RECHERCHE SCIENTIFIQUE, published 2023)
Blank lines part the entries; values can stand above or below the molecule they belong to.

How the values were obtained:
[1] = target: recombinant IL-1RA (Homo sapiens (Human)) (UniProt P18510); assay: Octet BLI, comparison of KD
[2] = target: recombinant IL-1RA (Homo sapiens (Human)) (UniProt P18510); assay: Octet BLI, biotinylated antibody on streptavidin biosensor, IL-1RA at 50 nM
[3] = target: recombinant IL-1RA (Homo sapiens (Human)) (UniProt P18510); assay: Octet BLI, biotinylated antibody on streptavidin biosensor, IL-1RA at 14.8 nM
[4] = target: recombinant IL-1RA (Homo sapiens (Human)) (UniProt P18510); assay: Octet BLI, biotinylated antibody on streptavidin biosensor, IL-1RA at 22.2 nM
[5] = target: recombinant IL-1RA (Homo sapiens (Human)) (UniProt P18510); assay: Octet BLI, biotinylated antibody on streptavidin biosensor, IL-1RA at 33.3 nM
[6] = target: recombinant IL-1RA (Homo sapiens (Human)) (UniProt P18510); assay: Octet BLI, biotinylated antibody on streptavidin biosensor, IL-1RA at 9.87 nM
[7] = target: recombinant IL-1RA (Homo sapiens (Human)) (UniProt P18510); assay: Octet BLI, biotinylated antibody on streptavidin biosensor, IL-1RA in solution, 1:1 fit
recombinant IL-1RA [8] = target: T1, recombinant IL-1RA (Homo sapiens (Human), UniProt P18510 26-177); assay: Octet BLI, biotinylated antibody on streptavidin biosensor, IL-1RA at 2.37 nM
T1 construct: also called IL-1RA antigen; IL-RA
Protocol: (§1) This antigen was tested at 12 nM at the first point, then diluted 1.5 times on 6 points for the first 4 antibodies.

recombinant IL-1RA [9] = target: T1, recombinant IL-1RA; assay: Octet BLI, biotinylated antibody on streptavidin biosensor, IL-1RA at 3.55 nM
Protocol: as §1

recombinant IL-1RA [10] = target: T1, recombinant IL-1RA; assay: Octet BLI, biotinylated antibody on streptavidin biosensor, IL-1RA at 5.33 nM
Protocol: as §1

recombinant IL-1RA [11] = target: T1, recombinant IL-1RA; assay: Octet BLI, biotinylated antibody on streptavidin biosensor, IL-1RA in solution, 1:1 fit over 4 concentrations
Protocol: as §1
For each antibody, 4 concentrations were used to calculate the KD. The constant KD is related to the rate of complex formation (described by the rate constant of association, kon) and the rate of dissociation (described by the rate constant of dissociation, kdis), with KD=kdis/kon. A high affinity interaction is characterized by a low KD, rapid recognition (high kon) and stability of the complexes formed (low kdis). The R2 makes it possible to estimate the reliability of the results obtained (the closer it is to 1, the more reliable the results).

recombinant IL-1RA (Homo sapiens (Human)), sequence (P18510 26-177): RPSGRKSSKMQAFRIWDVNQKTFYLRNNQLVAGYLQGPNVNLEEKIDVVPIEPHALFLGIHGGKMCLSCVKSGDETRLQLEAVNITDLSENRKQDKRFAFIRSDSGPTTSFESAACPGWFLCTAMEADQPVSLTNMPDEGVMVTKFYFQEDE
T1 sequence (P18510 26-177): as above

Molecule: anti-IL-1RA antibody MAB280 from R&D Systems
fold lower affinity than the antibodies selected in examples 2, 3 [1]: > 10 times
Response [2]: 0.151
Response [3]: 0.0761
Response [4]: 0.105
Response [5]: 0.121
Response [6]: 0.0638
Kd [7]: 50.8 nM
koff [7]: 0.00718 s⁻¹
kon [7]: 142000 M⁻¹ s⁻¹

B1: 908.9G5B9 (antibody, V domains shown)
VH: EVQLQQSGAELVKPGASVKLSCTVSGFNITDTYIHWVKQRPEKGLEWIGRIDPANGNTKYDPKLQGKATITADTSSNTAYLQLSSLTSEDTAVYYCARDGTYVYYAMDYWGQGTSVTVSS
VL: DIQMTQSPASLSASVGETVTITCRASENIFIYLAWYQQKQGKSPQLLVYNAKTLAEGVPSRFSGSGSGTQFSLKINSLLPEDFGSYYCQHHYGIPFTFGSGTKLEIE
notes: Biotinylated in the Octet assay; fixed (capture) antibody in the sandwich ELISAs
Response (recombinant IL-1RA [8]): 0.092
Response (recombinant IL-1RA [9]): 0.132
Response (recombinant IL-1RA [10]): 0.2
Kd (recombinant IL-1RA [11]): 3.84 nM
koff (recombinant IL-1RA [11]): 0.00131 s⁻¹
kon (recombinant IL-1RA [11]): 342000 M⁻¹ s⁻¹

The next lines start with the values.

Response (recombinant IL-1RA [8]): 0.101
Response (recombinant IL-1RA [9]): 0.154
Response (recombinant IL-1RA [10]): 0.229
Kd (recombinant IL-1RA [11]): 4.86 nM
koff (recombinant IL-1RA [11]): 0.000865 s⁻¹
kon (recombinant IL-1RA [11]): 178000 M⁻¹ s⁻¹
B2: 908.9E11B6 (antibody, IgG1, V domains shown)
VH: QVQLKESGPGLVAPSQSLSITCTVSGFSLTSYGVHWVRQPPGKGLEWLGVIWAGGVTHYNSALMSRLNISKDNSQSQVFLKMNSLRTDDTAMYYCARGGALLRSHFDYWGQGTTLTVSS
VL: QAVVTQESALTTSPGETVTLTCRSSTGAVTTSNYANWVQEKPDHLFTGLIGGTNNRAPGVPARFSGSLIGDKAALTITGAQTEDEAIYHCALWYSNLWVFGGRTKLTVL

Response (recombinant IL-1RA [8]): 0.107
Response (recombinant IL-1RA [9]): 0.15
Response (recombinant IL-1RA [10]): 0.21
Kd (recombinant IL-1RA [11]): 1.76 nM
koff (recombinant IL-1RA [11]): 0.000464 s⁻¹
kon (recombinant IL-1RA [11]): 264000 M⁻¹ s⁻¹
B3: 908.10E12C1 (antibody, IgG1, V domains shown)
VH: EVQLQQSGPELVKPGASVKISCKTSGYTFTEYTMHWVKQSHGKSLEWIGSINPNNGGTNYNQKFKGKATLTVDKSSNTAYMELRSLTSGDSAVYYCARTLYYAMDYWGQGTSVTVSS
VL: DIVMTQSPSSLAMSVGQKVTMSCKSSQSLLNSSNQKNYLAWYQQKPRQSPKLLVYFASTRDSGVPDRFLGSGSGTDFTLTINRVQAEDLADYFCQQHYILPPTFGAGTKLELK
